Target: the molecule itself
Experiment: AFM of spontaneously formed aggregates (self-assembly)

B1: Ex1Q48 (other)
chain: MATLEKLMKAFESLKSFQQQQQQQQQQQQQQQQQQQQQQQQQQQQQQQQQQQQQQQQQQQQQQQQPPPPPPPPPPPQLPQPPPQAQPLLPQLQPPPPPPPPPPGPAAAEEPLHRP
notes: also called HTTEx1Q48; HTTex1Q48
- binding result: binds

From patent US20210302442A1 (MAX DELBR CK CENTRUM F R MOLEKULARE MEDIZIN IN DER …, published 2021)
